# Values of other authors in paper doi:10.1101/2020.02.03.932012.
# Experiments:
# Assay in all cases: stability
# Settings in all cases: single buried-residue variants, ligand-free as far as stated
# [1] = target: Glu62 (UniProt position 144, EASAFEKKMVE)
# [2] = target: Lys62 (UniProt position 144, EASAFKKKMVE)
# [3] = target: Glu66 (UniProt position 148, FTKKMEENAKK)
# [4] = target: Lys66 (UniProt position 148, FTKKMKENAKK)
substance,measurement,setting,value
Staphylococcal nuclease Delta+PHS T62E (Staphylococcus aureus; G50F;V51N;P117G;H124L;S128A;del44-49;T62E),pKa,[1],7.7
Staphylococcal nuclease Delta+PHS T62K (Staphylococcus aureus; G50F;V51N;P117G;H124L;S128A;del44-49;T62K),pKa,[2],8.1
Staphylococcal nuclease Delta+PHS V66E (Staphylococcus aureus; G50F;V51N;P117G;H124L;S128A;del44-49;V66E),pKa,[3],8.5
Staphylococcal nuclease Delta+PHS V66K (Staphylococcus aureus; G50F;V51N;P117G;H124L;S128A;del44-49;V66K),pKa,[4],5.7
